The values that follow come from patent US20240392020A1 (JIANGSU HENGRUI PHARMACEUTICALS, published 2024).

As a reminder, the EC50 is the concentration that produces a half-maximal response. Read a low EC50 as greater potency.

One assay concerns the target T1, hBAFF (human, UniProt Q9Y275 134-285).
T1 construct: bought
The experiment in a line: ELISA. (In an ELISA, binding on a coated surface is turned into a signal by an enzyme label.)

The target in the next assay is T2, hP40 (human, UniProt P29460 23-328).
T2 construct: bought
T2 sequence (looked up): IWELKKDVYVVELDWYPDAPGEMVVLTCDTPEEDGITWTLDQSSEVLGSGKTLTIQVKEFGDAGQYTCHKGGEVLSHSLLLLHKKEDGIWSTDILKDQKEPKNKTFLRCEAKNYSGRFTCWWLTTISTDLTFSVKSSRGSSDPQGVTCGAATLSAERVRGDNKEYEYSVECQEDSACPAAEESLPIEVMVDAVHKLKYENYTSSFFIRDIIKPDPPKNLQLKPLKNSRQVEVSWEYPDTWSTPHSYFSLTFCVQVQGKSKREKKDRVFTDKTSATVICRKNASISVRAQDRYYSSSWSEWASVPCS
Briefly: ELISA.

Protocol for hBAFF: (§1) For an antibody targeting a soluble protein, the binding activity of the antibody against the soluble protein was detected by ELISA. […] After the blocking was completed, the blocking solution was discarded; and the plate was washed 3 times with a PBST buffer (pH 7.4, PBS containing 0.1% tween-20). 100 μL of the antibody solution diluted in a gradient was added to each well, and the mixture was incubated at 37° C. for 1 h. After the incubation was completed, the plate was washed 3 times with PBST. […] The plate was washed 3 times with PBST. […] The reaction was stopped by adding 50 μL of 1 M H₂SO₄ to each well. The absorbance values at 450 nm were read on a microplate reader, the binding curves of the antibodies to an antigen were fitted with software, and the EC₅₀ values were calculated.
Protocol for hP40: as §1

B1: BU2 (bispecific antibody, human IgG1, kappa, L234A L235A)
heavy 1: not shown
light 1: not shown
heavy 2: QVQLQQSGAEVKKPGSSVRVSCKASGGTFNNNAINWVRQAPGQGLEWMGGIIPMFGTAKYSQNFQGRVAITADESTGTASMELSSLRSEDTAVYYCARSRDLLLFPHHALSPWGRGTMVTVSSGGGGSGIPPKIECLPSDISIDEGKVLTVASAFTGEPTPEVTWSTGGRKIHSQEQGRFHIESTEDLTTLIISDVQKQDGGLYSLSLGNEFGSDSATVNIHIRSIDKTHTCPPCPAPEAAGGPSVFLFPPKPKDTLMISRTPEVTCVVVDVSHEDPEVKFNWYVDGVEVHNAKTKPREEQYNSTYRVVSVLTVLHQDWLNGKEYKCKVSNKALPAPIEKTISKAKGQPREPQVCTLPPSREEMTKNQVSLSCAVKGFYPSDIAVEWESNGQPENNYKTTPPVLDSDGSFFLVSKLTVDKSRWQQGNVFSCSVMHEALHNHYTQKSLSLSPGK
light 2: SSELTQDPAVSVALGQTVRVTCQGDSLRSYYASWYQQKPGQAPVLVIYGKNNRPSGIPDRFSGSSSGNTASLTITGAQAEDEADYYCSSRDSSGNHWVFGGGTELTVLGGGGSDQPQFSGAPRFLTRPLSYVVSVGKDASLSSQIVGNPTPQVSWEKDQLPVTAGARFRLAQDGDLYRLKILDLQLSDSGQYVSRARNAIGEAFACVGLEVGAEA
As for B1, the EC50 in the assay with hBAFF is 0.469 nM; with hP40, 0.0567 nM.

B2: BU3 (bispecific antibody, human IgG1, kappa, L234A L235A)
heavy 1: not shown
light 1: SSELTQDPAVSVALGQTVRVTCQGDSLRSYYASWYQQKPGQAPVLVIYGKNNRPSGIPDRFSGSSSGNTASLTITGAQAEDEADYYCSSRDSSGNHWVFGGGTELTVLGGGGSDQPQFSGAPRFLTRPLSYVVSVGKDASLSSQIVGNPTPQVSWEKDQLPVTAGARFRLAQDGDLYRLKILDLQLSDSGQYVSRARNAIGEAFACVGLEVGAEA
heavy 2: EVQLVQSGAEVKKPGESLKISCKGSGYSFTTYWLGWVRQMPGKGLDWIGIMSPVDSDIRYSPSFQGQVTMSVDKSITTAYLQWNSLKASDTAMYYCARRRPGQGYFDFWGQGTLVTVSSASTKGPSVFPLAPSSKSTSGGTAALGCLVKDYFPEPVTVSWNSGALTSGVHTFPAVLQSSGLYSLSSVVTVPSSSLGTQTYICNVNHKPSNTKVDKKVEPKSCDKTHTCPPCPAPEAAGGPSVFLFPPKPKDTLMISRTPEVTCVVVDVSHEDPEVKFNWYVDGVEVHNAKTKPREEQYNSTYRVVSVLTVLHQDWLNGKEYKCKVSNKALPAPIEKTISKAKGQPREPQVCTLPPSREEMTKNQVSLSCAVKGFYPSDIAVEWESNGQPENNYKTTPPVLDSDGSFFLVSKLTVDKSRWQQGNVFSCSVMHEALHNHYTQKSLSLSPGK
light 2: not shown
For the molecule B2, the values for the 50% effective concentration (EC50) with hBAFF and with hP40 were 0.413 nM and 0.224 nM, respectively.

B3: BU4 (bispecific antibody, human IgG1, kappa, L234A L235A)
heavy 1: not shown
light 1: not shown
heavy 2: QVQLQQSGAEVKKPGSSVRVSCKASGGTFNNNAINWVRQAPGQGLEWMGGIIPMFGTAKYSQNFQGRVAITADESTGTASMELSSLRSEDTAVYYCARSRDLLLFPHHALSPWGRGTMVTVSSGGGGSKAGIRGIPPKIECLPSDISIDEGKVLTVASAFTGEPTPEVTWSTGGRKIHSQEQGRFHIESTEDLTTLIISDVQKQDGGLYSLSLGNEFGSDSATVNIHIRSIDKTHTCPPCPAPEAAGGPSVFLFPPKPKDTLMISRTPEVTCVVVDVSHEDPEVKFNWYVDGVEVHNAKTKPREEQYNSTYRVVSVLTVLHQDWLNGKEYKCKVSNKALPAPIEKTISKAKGQPREPQVCTLPPSREEMTKNQVSLSCAVKGFYPSDIAVEWESNGQPENNYKTTPPVLDSDGSFFLVSKLTVDKSRWQQGNVFSCSVMHEALHNHYTQKSLSLSPGK
light 2: SSELTQDPAVSVALGQTVRVTCQGDSLRSYYASWYQQKPGQAPVLVIYGKNNRPSGIPDRFSGSSSGNTASLTITGAQAEDEADYYCSSRDSSGNHWVFGGGTELTVLGGGGSDQPQFSGAPRFLTRPLSYVVSVGKDASLSSQIVGNPTPQVSWEKDQLPVTAGARFRLAQDGDLYRLKILDLQLSDSGQYVSRARNAIGEAFACVGLEVGAEA
On to B3, for which the 50% effective concentration (EC50) came out at 0.506 nM with hBAFF and 0.0443 nM with hP40.
